Consider 1 molecule from patent US20210071139A1 (published 2021).

The assay deals with histone H4 (UniProt P62806 2-103). Description: IP with anti-TOX from EL4 lysate, Western blot (FIG. 60L). Background: A western blot detects proteins with antibodies after separation by electrophoresis.

B1: TOX (other)
chain: MDVRFYPPPAQPAAAPAAPCLGPSPCLDPYYCNKFDGENMYMSMTEPSQDYVPASQSYPGPSLESEDFNIPPITPPSLPDHSLVHLNEVESGYHSLCHPMNHNGLLPFHPQTMDLPEITVSNMLGQDGALLSNSISVMQEIGNAEGAQYSSHPQMAAMRPRGQPTDIRQQASMMQPGQLTTINQSQLSAQLGLNMGGTNVAHNSPSPPGSKSATPSPSSSVHEDECEDASKINGGEKRPASDMGKKPKTPKKKKKKDPNEPQKPVSAYALFFRDTQAAIKGQNPNATFGEVSKIVASMWDGLGEEQKQVYKKKTEAAKKEYLKQLAAYRASLVSKSYTDPVDVKTSQPPQLVNSKPSVFHGPSQAHSALYLSSHYHQQPGMTPQLTAMHPSLPRNIAPKPNNQMPVTVSIANMAVSPPPPLQISPPLHQHLSMQQHQSLAMQQPLGSQLPMQVQTALHSPTMQQGFTLQPDYQTIINPTSTAAQVVTQAMEYVRSGCRNPPPQPVDWSTDYCSSGGMQRDKALYLT
notes: Bait of the immunoprecipitations (anti-TOX ab155768, Abcam); also called TOX protein
On to B1, for which the binding result was “binds”.
